# Substitutions are numbered along the chain they refer to.
# B1: anti-PSMA heavy-chain antibody (HCAb) clone ID 345480 (antibody, V domains shown)
# VH: QVQLVESGGGVVQPGRSLRLSCAASGFSFSSYGMHWVRQAPGKGLEWVAVIWYDGSNRYYADSVKGRFTISRDNSKNTLYLQMNSLRAEDTAVYYCAREPRIGYYYESSGYYSLDYRGQGTLVTVSS
# notes: Heavy chain-only antibody (UniAb)
# B2: anti-PSMA heavy-chain antibody (HCAb) clone ID 345447 (antibody, V domains shown)
# VH: B1 VH with W47G, W52S
# notes: as for B1
# B3: anti-PSMA heavy-chain antibody (HCAb) clone ID 345421 (antibody, V domains shown)
# VH: B1 VH with G8V, W47G
# notes: as for B1
# B4: anti-PSMA heavy-chain antibody (HCAb) clone ID 345461 (antibody, V domains shown)
# VH: B1 VH with S30T, W47G
# notes: as for B1
# B5: anti-PSMA heavy-chain antibody (HCAb) clone ID 345482 (antibody, V domains shown)
# VH: B1 VH with W47G, N74S
# notes: as for B1
# B6: anti-PSMA heavy-chain antibody (HCAb) clone ID 345497 (antibody, V domains shown)
# VH: B1 VH with S31R, W47G
# notes: as for B1
# B7: anti-PSMA heavy-chain antibody (HCAb) clone ID 345509 (antibody, V domains shown)
# VH: B1 VH with V11L, R16G, W47G, R58K, L79M
# notes: as for B1
# B8: anti-PSMA heavy-chain antibody (HCAb) clone ID 326028 (antibody, V domains shown)
# VH: B1 VH with S30R, W52S, R58K, N74Y, E107D, Y112D
# notes: as for B1
# B9: anti-PSMA heavy-chain antibody (HCAb) clone ID 326027 (antibody, V domains shown)
# VH: B1 VH with S30R, R58K, E107D, Y112D
# notes: as for B1
# B10: anti-PSMA heavy-chain antibody (HCAb) clone ID 345485 (antibody, V domains shown)
# VH: B1 VH with S30R, R58K, L79M
# notes: as for B1
# B11: anti-PSMA heavy-chain antibody (HCAb) clone ID 326084 (antibody, V domains shown)
# VH: B1 VH with W47G, E107D
# notes: as for B1
# B12: anti-PSMA heavy-chain antibody (HCAb) clone ID 326116 (antibody, V domains shown)
# VH: B1 VH with S31R, W47G, W52S, R58K, N74Y, E107D, Y112D
# notes: as for B1
# B13: anti-PSMA heavy-chain antibody (HCAb) clone ID 345508 (antibody, V domains shown)
# VH: B1 VH with L45P
# notes: as for B1
# B14: anti-PSMA heavy-chain antibody (HCAb) clone ID 326087 (antibody, V domains shown)
# VH: B1 VH with S28I, S30R, L45P, R58K, E107D, Y112D
# notes: as for B1
# B15: anti-PSMA heavy-chain antibody (HCAb) clone ID 325867 (antibody, V domains shown)
# VH: B1 VH with S30R, R58K, N74Y, Y112D
# notes: as for B1
# B16: anti-PSMA heavy-chain antibody (HCAb) clone ID 326029 (antibody, V domains shown)
# VH: B1 VH with S31R, W52S, R58K, I102V, S108T
# notes: as for B1
# B17: anti-PSMA heavy-chain antibody (HCAb) clone ID 325742 (antibody, V domains shown)
# VH: B1 VH with R58K, N74Y, Y112D
# notes: as for B1
# B18: anti-PSMA heavy-chain antibody (HCAb) clone ID 345436 (antibody, V domains shown)
# VH: B1 VH with S31R, W47G, R58K
# notes: as for B1
# B19: anti-PSMA heavy-chain antibody (HCAb) clone ID 345443 (antibody, V domains shown)
# VH: B1 VH with W47G, Y80F
# notes: as for B1
# B20: anti-PSMA heavy-chain antibody (HCAb) clone ID 345463 (antibody, V domains shown)
# VH: B1 VH with S28I, S30R, L45P, R58K
# notes: as for B1
# B21: anti-PSMA heavy-chain antibody (HCAb) clone ID 345493 (antibody, V domains shown)
# VH: B1 VH with S31R
# notes: as for B1
# B22: anti-PSMA heavy-chain antibody (HCAb) clone ID 345505 (antibody, V domains shown)
# VH: B1 VH with S28T, S30I, W47G
# notes: as for B1
# B23: anti-PSMA heavy-chain antibody (HCAb) clone ID 345490 (antibody, V domains shown)
# VH: B1 VH with V11L, Q13K, R16G, W47G
# notes: as for B1
# B24: anti-PSMA heavy-chain antibody (HCAb) clone ID 345510 (antibody, V domains shown)
# VH: B1 VH with R58K, L79M
# notes: as for B1
# B25: anti-PSMA heavy-chain antibody (HCAb) clone ID 345438 (antibody, V domains shown)
# VH: B1 VH with L45P, R58K
# notes: as for B1
# B26: anti-PSMA heavy-chain antibody (HCAb) clone ID 325836 (antibody, V domains shown)
# VH: B1 VH with S30R, R58K, N74Y, E107D, Y112D
# notes: as for B1
# B27: anti-PSMA heavy-chain antibody (HCAb) clone ID 345444 (antibody, V domains shown)
# VH: B1 VH with S28T, W47G
# notes: as for B1
# B28: monoparatopic PSMA×CD3 bispecific antibody 346181×CD3 (bispecific antibody)
# chain 1: QLQLQESGPGLVKPSETLSLTCTVSGGSISSSNYFWGWIRQSPGKGLEWIGSIDYSGYTYYNPSLKSRVTISVDTSKNQFSLKLSSVTAADTAVYNCARHKAATADFDYRGQGTLVTVSS
# chain 2: EVQLVESGGGLVQPGRSLRLSCAASGFTFDDYAMHWVRQAPGKGLEWVSGISWNSGSIGYADSVKGRFTISRDNAKNSLYLQMNSLRAEDTALYYCAKDSRGYGDYRLGGAYWGQGTLVTVSS
# chain 3: not shown
# B29: anti-PSMA heavy-chain antibody (HCAb) clone ID 325920 (antibody, V domains shown)
# VH: B28 chain 1 with N33S, F35Y, S42P, K66Q
# notes: as for B1
# B30: biparatopic anti-PSMA×CD3 antibody 350123×CD3 (bispecific antibody)
# chain 1: QLQLQESGPGLVKPSETLSLTCTVSGGSISSSNYFWGWIRQSPGKGLEWIGSIDYSGYTYYNPSLKSRVTISVDTSKNQFSLKLSSVTAADTAVYNCARHKAATADFDYRGQGTLVTVSSGGGGSGGGGSQVQLVESGGGVVQPGRSLRLSCAASGFSFSRYGMHWVRQAPGKGLEGVAVIWYDGSNRYYADSVKGRFTISRDNSKNTLYLQMNSLRAEDTAVYYCAREPRIGYYYESSGYYSLDYRGQGTLVTVSS
# chain 2: B28 chain 2
# chain 3: not shown
# B31: anti-PSMA heavy-chain antibody (HCAb) clone ID 326109 (antibody, V domains shown)
# VH: QLQLQESGPGLVKPSETLSLTCTVSGGSISSNSYYWGWIRQSPGKGLEWLGSIYDSGSTHYNPSLKSRVIISGDTSKNQFSLKLSSVTAADTAVYYCARHKAATADFDYRGQGTLVTVSS
# notes: as for B1
# B32: anti-PSMA heavy-chain antibody (HCAb) clone ID 346181 (antibody, V domains shown)
# VH: B28 chain 1
# notes: as for B1
# B33: anti-PSMA heavy-chain antibody (HCAb) clone ID 346165 (antibody, V domains shown)
# VH: B28 chain 1 with N33S, F35Y, S42P, I53V, K66Q
# notes: as for B1
# Tests used:
# [1] = molecular target: T1, human Prostate Specific Membrane Antigen (PSMA) (human, UniProt Q04609 1-750); assay: flow cytometry on LNCaP cells
# T1 construct: whole, on cells; also called Glutamate Carboxypeptidase II; FOLH1
# T1 sequence (Q04609 whole entry): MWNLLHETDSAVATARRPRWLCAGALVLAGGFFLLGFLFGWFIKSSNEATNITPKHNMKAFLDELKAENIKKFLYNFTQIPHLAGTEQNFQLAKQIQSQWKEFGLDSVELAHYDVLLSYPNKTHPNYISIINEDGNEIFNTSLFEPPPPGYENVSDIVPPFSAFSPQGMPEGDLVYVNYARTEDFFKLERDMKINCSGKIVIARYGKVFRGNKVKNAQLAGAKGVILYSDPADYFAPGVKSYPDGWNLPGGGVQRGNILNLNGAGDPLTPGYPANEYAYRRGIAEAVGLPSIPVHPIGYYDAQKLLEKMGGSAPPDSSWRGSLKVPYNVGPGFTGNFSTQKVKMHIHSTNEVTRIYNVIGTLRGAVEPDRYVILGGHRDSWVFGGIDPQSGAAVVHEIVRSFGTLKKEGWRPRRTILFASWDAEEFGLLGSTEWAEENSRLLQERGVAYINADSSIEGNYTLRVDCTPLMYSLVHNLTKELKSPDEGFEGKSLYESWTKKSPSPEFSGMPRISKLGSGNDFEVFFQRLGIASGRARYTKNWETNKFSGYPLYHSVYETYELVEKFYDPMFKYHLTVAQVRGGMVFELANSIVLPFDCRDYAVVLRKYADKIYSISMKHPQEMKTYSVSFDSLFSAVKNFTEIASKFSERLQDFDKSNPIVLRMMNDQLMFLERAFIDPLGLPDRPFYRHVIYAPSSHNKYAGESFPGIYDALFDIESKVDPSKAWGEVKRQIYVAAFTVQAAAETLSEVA
# Description: Briefly, 50,000 target cells were stained with a dilution series of purified UniAbs™ for 30 minutes at 4° C. Following incubation, the cells were washed twice with flow cytometry buffer (1×PBS, 1% BSA, 0.1% NaN₃) and stained with goat F(ab′)₂ anti-human IgG conjugated to R-phycoerythrin (PE) (Southern Biotech, cat. #2042-09) to detect cell-bound antibodies. After a 20-minute incubation at 4° C., the cells were washed twice with flow cytometry buffer and the mean fluorescence intensity (MFI) was measured by flow cytometry. The MFI of cells stained with secondary antibody alone were used for determination of background signal and binding of each antibody was converted to fold over background. […] In some experiments EC50 values were calculated using GraphPad Prism 7.
# Column 1 indicates the clone ID of the HCAb. Column 2 indicates binding to LNCaP cells measured as fold over the background MFI signal.
# [2] = molecular target: T1, human Prostate Specific Membrane …; assay: cell-based or functional assay
# [3] = molecular target: T1, human Prostate Specific Membrane …; assay: cell binding, flow cytometry, MDA-PCa-2b cells
# [4] = molecular target: T1, human Prostate Specific Membrane …; assay: cell binding, flow cytometry, LNCAP cells
# [5] = molecular target: T1, human Prostate Specific Membrane …; assay: cell binding, flow cytometry, 22Rv1 cells
# [6] = molecular target: T1, human Prostate Specific Membrane …; assay: cell binding, flow cytometry, PC3-PSMA cells
Binder,fold over background MFI [1] [fold over background],also measured
B1,47,–
B2,14,–
B3,22,–
B4,102,–
B5,80,–
B6,112,–
B7,37,–
B8,117,–
B9,138,–
B10,71,–
B11,125,–
B12,38,–
B13,55,–
B14,129,–
B15,210,–
B16,109,–
B17,200,–

Binder,fold over background MFI [1] [fold over background],also measured
B18,87,–
B19,84,–
B20,68,–
B21,101,–
B22,59,–
B23,80,–
B24,13,–
B25,13,–
B26,163,–
B27,23,–
B28,–,"IFNγ EC50, 22Rv1 cells [2]: 174 nM; IFNγ EC50, LNCAP cells [2]: 63 nM; IFNγ EC50, MDA-PCa-2b cells [2]: 116 nM; IFNγ EC50, PC3-PSMA cells [2]: 10.1 nM; IL-2 EC50, LNCAP cells [2]: 575 nM; IL-2 EC50, MDA-PCa-2b cells [2]: 38.5 nM; IL-2 EC50, PC3-PSMA cells [2]: 4.1 nM; Kill EC50, 22Rv1 cells, resting T-cells [2]: 52.8 nM; Kill EC50, LNCAP cells, resting T-cells [2]: 14.6 nM; Kill EC50, MDA-PCa-2b cells, resting T-cells [2]: 23.6 nM; Kill EC50, PC3-PSMA cells, resting T-cells [2]: 3.7 nM; EC50 [3]: 28 nM; EC50 [4]: 17 nM; EC50 [5]: 58 nM; EC50 [6]: 30 nM"
B29,282,–
B30,–,"IFNγ EC50, 22Rv1 cells [2]: 380 nM; IFNγ EC50, LNCAP cells [2]: 3.29 nM; IFNγ EC50, MDA-PCa-2b cells [2]: 0.9 nM; IFNγ EC50, PC3-PSMA cells [2]: 1.01 nM; IL-2 EC50, LNCAP cells [2]: 3.73 nM; IL-2 EC50, MDA-PCa-2b cells [2]: 1.11 nM; IL-2 EC50, PC3-PSMA cells [2]: 1.1 nM; Kill EC50, 22Rv1 cells, resting T-cells [2]: 0.42 nM; Kill EC50, LNCAP cells, resting T-cells [2]: 0.84 nM; Kill EC50, MDA-PCa-2b cells, resting T-cells [2]: 0.41 nM; Kill EC50, PC3-PSMA cells, resting T-cells [2]: 0.4 nM; EC50 [3]: 2 nM; EC50 [4]: 2 nM; EC50 [5]: 3 nM; EC50 [6]: 6 nM"
B31,25,–
B32,264,–
B33,243,–

# — patent US20230203161A1 (TENEOBIO, published 2023)
